B1: PPEF2 (parent)
chain: DHSGFISLDEFRQTWKLFSSHMNI

Variants of: B1
Assay: protein stability index of a GFP-peptide fusion (GPS, HEK-293T) (PSI 1-6); higher = more stable
Conditions: c terminus: a fixed tail appended
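Further: lentivirally expressed fusions sorted by FACS into six bins by GFP to DsRed ratio, PSI derived from sequencing read proportions per bin multiplied by bin number.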

Row | Variant | protein stability index
1 | I24K | 1.79
2 | I24G | 1.98
3 | I24C | 1.55
4 | I24W | 2.35
5 | I24T | 1.89
6 | I24V | 2.01
7 | I24M | 2.04
8 | I24Q | 1.78
9 | I24P | 1.87
10 | I24A | 1.96
11 | I24R | 1.63
12 | I24L | 1.9
13 | I24H | 1.7
14 | I24Y | 2.04
15 | I24E | 1.99
16 | K16M | 1.01
17 | K16L | 3.93
18 | K16V | 2.6
19 | K16P | 2.07
20 | K16G | 1.32
21 | K16C | 2.15
22 | K16F | 1.94
23 | K16D | 1.71
24 | K16W | 3.62

Row | Variant | protein stability index
25 | K16S | 1.81
26 | K16A | 1.88
27 | K16T | 3.38
28 | K16Q | 1.74
29 | S3R | 2.58
30 | S3L | 2.07
31 | S3H | 1.69
32 | S3N | 1.99
33 | S3E | 2.17
34 | S3T | 2.62
35 | S3C | 1.81
36 | S3Y | 2.27
37 | S3Q | 1.85
38 | S3M | 1.69
39 | S3W | 1.8
40 | S3G | 1.97
41 | S3K | 2.47
42 | M22G | 2.17
43 | M22N | 1.62
44 | M22V | 1.51
45 | M22W | 2.49
46 | M22Y | 2.21
47 | M22S | 1.55
48 | M22F | 2.32

Row | Variant | protein stability index
49 | M22I | 2.02
50 | M22T | 1.6
51 | M22A | 1.88
52 | M22L | 1.79
53 | M22E | 2.19
54 | M22H | 1.61
55 | T14E | 1.87
56 | T14F | 1.83
57 | T14G | 1.69
58 | T14M | 1.85
59 | T14P | 2.17
60 | T14Q | 2.08
61 | T14H | 2
62 | T14W | 1.39
63 | T14V | 1.93
64 | T14A | 2
65 | T14I | 1.83
66 | T14L | 1.66
67 | T14C | 2.88
68 | T14S | 2.14
69 | T14K | 1.93
70 | D1C | 2.13
71 | D1I | 3.63
72 | D1Q | 2.4

Row | Variant | protein stability index
73 | D1H | 1.38
74 | D1Y | 2.58
75 | D1K | 2.64
76 | D1T | 2.84
77 | D1E | 1.4
78 | D1P | 2.12
79 | D1F | 2.27
80 | D1G | 1.47
81 | D1L | 3.93
82 | D1A | 1.51
83 | D1M | 1.94
84 | D1W | 2.08
85 | R12L | 1.53
86 | R12I | 2.73
87 | R12N | 1.81
88 | R12A | 1.87
89 | R12M | 2.38
90 | R12P | 1.61
91 | R12K | 1.89
92 | R12H | 1.86
93 | R12F | 3.28
94 | R12C | 1.74
95 | R12E | 1.62
96 | R12D | 2.06

Row | Variant | protein stability index
97 | F18I | 2.51
98 | F18A | 1.96
99 | F18W | 1.87
100 | F18H | 1.55
101 | F18Y | 2.56
102 | F18M | 1.64
103 | F18Q | 1.72
104 | F18P | 1.96
105 | F18G | 2.48
106 | F18L | 1.46
107 | F18N | 2.12
108 | F18E | 1.88
109 | F18T | 1.82
110 | F18V | 1.91
111 | F18R | 1.8
112 | D9A | 3.05
113 | D9M | 2.67
114 | D9T | 2.24
115 | D9E | 2.29
116 | D9S | 1.84
117 | D9I | 3.32
118 | D9V | 2.94
119 | D9R | 1.92
120 | D9G | 2.82

Row | Variant | protein stability index
121 | D9W | 2.75
122 | D9F | 2.48
123 | D9K | 2.1
124 | D9H | 1.87
125 | E10S | 1.35
126 | E10L | 2.49
127 | E10R | 1.6
128 | E10A | 2.48
129 | E10Q | 1.96
130 | E10V | 2.88
131 | E10W | 1.87
132 | E10G | 1.26
133 | E10H | 2.25
134 | E10Y | 1.82
135 | E10N | 2.85
136 | E10T | 2.37
137 | E10C | 1.95
138 | E10D | 1.71
139 | E10K | 1.79
140 | E10M | 2.26
141 | S19E | 1.3
142 | S19W | 1.87
143 | S19R | 1.7
144 | S19K | 1.85

Row | Variant | protein stability index
145 | S19Q | 2.02
146 | S19D | 1.56
147 | S19T | 2.55
148 | S19H | 1.88
149 | S19V | 2.26
150 | S19L | 1.46
151 | S19M | 1.78
152 | S19I | 2.22
153 | S19N | 1.07
154 | S19G | 1.81
155 | S19Y | 1.7
156 | N23S | 2.26
157 | N23F | 3.35
158 | N23Y | 2.57
159 | N23I | 2.18
160 | N23H | 2.16
161 | N23G | 1.73
162 | N23D | 1.69
163 | N23T | 2.83
164 | N23P | 1.84
165 | N23Q | 1.86
166 | N23M | 2.57
167 | F11R | 2.01
168 | F11S | 1.68

Row | Variant | protein stability index
169 | F11V | 2.07
170 | F11Q | 1.56
171 | F11A | 1.32
172 | F11G | 2.52
173 | F11D | 1.61
174 | F11L | 3.54
175 | F11N | 1.51
176 | F11M | 2.14
177 | F11H | 1.95
178 | F11Y | 2.19
179 | F11K | 1.64
180 | F11P | 1.85
181 | I6M | 2.32
182 | I6A | 1.39
183 | I6V | 1.41
184 | I6P | 2.02
185 | I6K | 1.94
186 | I6G | 1.28
187 | I6R | 2.08
188 | I6L | 1.65
189 | I6T | 1.71
190 | I6Q | 1.91
191 | I6C | 1.86
192 | I6N | 1.6

Row | Variant | protein stability index
193 | I6S | 1.75
194 | H21R | 2.23
195 | H21I | 2.54
196 | H21Y | 1.49
197 | H21V | 2.84
198 | H21E | 2.06
199 | H21L | 1.74
200 | H21Q | 1.06
201 | H21M | 1.49
202 | H21D | 1.91
203 | H21W | 2.02
204 | H21N | 2.01
205 | H21A | 1.63
206 | H21S | 1.86
207 | H21K | 1.63
208 | L8F | 2.59
209 | L8D | 2.13
210 | L8H | 2.44
211 | L8Y | 1.87
212 | L8V | 2.74
213 | L8A | 1.62
214 | L8E | 1.85
215 | L8T | 2.09
216 | L8Q | 2.01

Row | Variant | protein stability index
217 | L8M | 1.88
218 | L8G | 2.13
219 | L8R | 1.93
220 | L8N | 1.62
221 | L8S | 1.75
222 | L8P | 1.9
223 | S20P | 1.96
224 | S20H | 1.63
225 | S20F | 2.44
226 | S20T | 1.85
227 | S20W | 3.78
228 | S20E | 2.43
229 | S20D | 2.15
230 | S20A | 2.14
231 | S20R | 2.16
232 | S20N | 1.71
233 | S20V | 3
234 | S20L | 2.03
235 | S20I | 2.75
236 | S7Y | 1.97
237 | S7G | 2.95
238 | S7Q | 1.79
239 | S7K | 1.69
240 | S7D | 1.47

Row | Variant | protein stability index
241 | S7A | 2.06
242 | S7L | 1.83
243 | S7M | 2.3
244 | S7E | 1.86
245 | S7T | 2.04
246 | S7N | 2.06
247 | S7H | 1.83
248 | S7C | 2.37
249 | S7I | 2.44
250 | S7P | 1.44
251 | F5A | 1.33
252 | F5H | 1.77
253 | F5C | 1.66
254 | F5E | 1.65
255 | F5W | 1.93
256 | F5N | 2.13
257 | F5G | 2.5
258 | F5R | 1.28
259 | F5L | 1.92
260 | F5Q | 1.73
261 | F5T | 1.54
262 | F5V | 1.53
263 | F5S | 1.85
264 | F5M | 1.4

Row | Variant | protein stability index
265 | L17C | 1.59
266 | L17M | 2.63
267 | L17E | 2.11
268 | L17A | 2.07
269 | L17P | 1.55
270 | L17W | 1.29
271 | L17D | 2.27
272 | L17G | 1.5
273 | L17R | 1.62
274 | L17F | 3.02
275 | L17I | 3.24
276 | L17Q | 1.58
277 | H2N | 1.14
278 | H2G | 1.43
279 | H2M | 3.51
280 | H2A | 2.35
281 | H2Q | 1.75
282 | H2V | 1.45
283 | H2K | 2.01
284 | H2S | 1.92
285 | H2F | 1.9
286 | H2E | 1.44
287 | H2C | 1.75
288 | H2Y | 2.11

Row | Variant | protein stability index
289 | H2I | 1.91
290 | H2P | 2.32
291 | G4N | 2.69
292 | G4C | 2.41
293 | G4Y | 2.27
294 | G4T | 1.95
295 | G4A | 2.89
296 | G4P | 1.98
297 | G4Q | 2.47
298 | G4D | 1.78
299 | G4F | 2.5
300 | G4E | 2.16
301 | G4H | 2.28
302 | G4V | 3.22
303 | G4W | 1.98
304 | G4I | 2.78
305 | G4M | 1.65
306 | G4R | 1.87
307 | W15S | 1.81
308 | W15M | 2.79
309 | W15H | 1.76
310 | W15Q | 2.25
311 | W15A | 1.67
312 | W15T | 2.58

Row | Variant | protein stability index
313 | W15I | 1.77
314 | W15R | 1.62
315 | W15Y | 2.15
316 | W15P | 1.81
317 | W15L | 1.88
318 | W15K | 2.36
319 | W15C | 2.39
320 | Q13E | 2.36
321 | Q13N | 2.65
322 | Q13D | 1.61
323 | Q13S | 2.13
324 | Q13A | 1.73
325 | Q13Y | 1.45
326 | Q13P | 2.35
327 | Q13F | 3.91
328 | Q13K | 1.68
329 | Q13V | 2.95
330 | Q13T | 3.18
331 | Q13I | 3.27
332 | Q13M | 3.2
333 | Q13L | 3.59
334 | Q13H | 1.87

Source: the supplement of paper PMC10567573
